Experiment: soluble on expression in E. coli; label from the status in PepcDB or PDB records

Row | Sequence | soluble on expression in E. coli
1 | MGTSVTPNIFDFLIKIDPFDKLPEPVVESIANSVKVKYLVRGETIGFSALCDQRYLYIIRTGAIEQRTPNGELRARLGQDDQFGFTFLDPLENAEDGYQAEAIEDSLLYLIPHSELKLVSEEHPEFADYFAAQANVRLSSAVKYVCRKEEKGLFFRTVGEIASENIAIVDVNDSIRSVAQTMCGKQRSSCAVVMKEGEIIGLVTDRDMTKSVVAQDMDTNQPIADVMTPNPVLIEDDAKVIQAISLMLQYNIRCLPVVHGKQVKGLLTTTHLVHNHRTQSLFLIEKIKYASSLNALAALKEERQTIFQALVESGVSAEIQGRVMSMIMDAFTRRIIQLNEELLGPPPCDYAWLVAGSHARNEVHMLSDQDSAIVLSDDATEEHKLYFTHLAMRVCNGLAACGYPLCDGKYMAASPKWCQPIRRWKEYYQKWVASPEYNKLLSISVFLEVRAIHGNREFVDQIQQHLHDCIQKSPSFIPALVRDAIDTQPPLGIFNNLVLEKGGENSNTLNIKKYALNLIIDLARIFSLAAGGSLTGTEERFRYAAQHGTLSKDSVENIIGAYRFITQVRFRHQLNAILAGTTPDNHIAPDDFSSFERKHLKDAFKIISELQDVAKLKFVKGA | not soluble
2 | MGSDKIHHHHHHMPPLNALRAFDAVARHGSFAGAAAELHVTHWAVGKQIRLLEDWFGLPLFDRRPRGVVLTDEGAVLLNDVSHAFEHLGTAVVRLRHNTLAHRISGVVRVNVPMSFAFCWLLPRLADFHSRYPDIDVRVSTTSRKLRYVADAFDIGVRSGPEQGAGVVSRPLMPDLRVPACNPALLRQHPIQSVADLRHHTLLHSATTRSAWSHWLREAGAADLRAARHVEFDHVNLQLGAAIEGLGVALASLPLIGRDLAEGRLVCPIASPVWRADDYTLVTNADRADDAAVSAFEQWMESMASQEAG | not soluble
3 | SSGRSVRAETRSRAKDDIKKVMAAIEKVRKWEKKWVTVGDTSLRIFKWVPVTDSKEKEKSKSNSSAAREPNGFPSDASANSSLLLEFQDENSNQSSVSDVYQLKVDSSTNSSPSPQQSESLSPAHTSDFRTDDSQPPTLGQEILEEPSLPSSEVADEPPTLTKEEPVPLETQVVEEEEDSGAPPLKRFCVDQPTVPQTASES | soluble
4 | MTTQQKKSSTRQGFKTGESIVYPAHGVGQIVAIEEQEVAGMKLELFVIDFEKDKMRLKVPVAKAVGIGMRKLSETDFVDRALKVVQGKARVKRTMWSRRAQEYDAKINSGDLISIAEVVRDLYRAENQPEQSYSERQLYEAALDRMAREIAAVNRMSETEAVRLVEANLNKGPKRGKAIEEDDAQDEAA | not soluble
5 | MAHHHHHHMGCFNSTDAVADQDPASGYMYTKPNAKGTKEALFGGLLYRITDEEEGGLAFYNNSKDYEFHIKYLFGADSELNAVGDTKLEMQDDGILAEVVVYPLETKPFVQGTIDGYETKLEALPLSEEYFALHPEIDEAAYYRRLEAPKSSRF | soluble
6 | MGWTCERVELLKKFWSEGLSASQIAAQLGGVSRNAVIGKVHRLKLPGRGKTAQGGGRVQKALVGVSSSPVRMRRTPSTVLPTNTASCSVGATALKVDVVVEDVTEVDLPEKSNVVVPISRQLNLLQLSENTCRWPVGDPLSPDFHFCGADSGENSPYCAFHAKIAFQPISERRRIRILEHHHHHH | not soluble
7 | MQIDVNVEVKEKPTGAVMFGAGYSNMEGLILSGSVAQDNIFGTGKFVNLMVNTGSVNKTYSLSYTDPYFTKDGVTAGLDLYKRVLNTRTLSSVMNFNTDTLGAGLRFGIPINENDSIMGGLGAEQTTIDLGPDSPQRNIDFVNKFGRTTINIPATLSWRRDGRDSAIWTTSGTTQRVFAEVGLPGGDLTYYKLSYDLRWYFPITEIFTLMLNGELGYGDGYSGKELPFFKNFFAGGNTSVRGYNISSLGPRDATNRTLGGNKRAVGNIEVLFPMPGMRNDRTVRLSAFLDGGTVWGPGGVRPDQEGLRYSAGIAVTWISPMGPLKISVAQPLNSQPGDNIQRFQFQFGQQFLEHHHHHH | not soluble
8 | MSRRNATSFVDNNTLTSSEGLTSGVFSWALERLPTCLREELQLPLTDTGSCWQTN | not soluble
9 | GHMIKGEQKRYSEMTKEELQQEIAMLTEKARKAEQMGMVNEYAVYERKIAMAKAYMLNPADFHPGEIYEIEGAPGEYFKVRYLKGVFAWGWRLKGNGEEEALPISLLRKPNLPQS | soluble
10 | MSNGGKRPPEDDSKLPYYKLVVIGDGGVGKSSLTIQFFQKQFVDYYDPTIEDQYIQHCEIDGNWVIMDVLDTAGQEEFSAMREQYIRGGRGFLLVFSVTERKSFEEAHKLYNQVLRVKDRSEYPVLLVANKVDLINQRVVSEQEGRELAAQLKLMYIETSAKEPPVNVDAAFHELVRIVRSFPSDEGDHEASMASVPRTKKRKDKGKCLIS | soluble
11 | MTVEQNVLQQSAAQKHQQTFLNQLREITGINDAQILQQALKDSNGNLELAVAFLTAKNAKTPPQEET | soluble
12 | MGSDKIHHHHHHTEDTVIKVSVLRGPSVIAFADWLENPPIIDNKKVQVKVVDSPDLAQALLIKQETDIAVLPMINAANLYNKGIKIKLAGCPIWGTLYLVEKTPLKEPALYVFGNGTTPDILTRYYLGRQRLDYPLNYAFNTAGEITQGILAGKVNRAVLGEPFLSIALRKDSSLRITADLNHLTDNDTLGFAQTAVVYTPTMEKYRIAFEDALRASCQKAVRYPKETIHSLEEHGIFAQGALTPKSIERCKIYYLSAIEAKDAVMGFLRLIEQYEPKAVGGRLPDAGFIPEKQ | not soluble
13 | MRNGISPIIIDNTNLHAWEMKPYAVMALENNYEVIFREPDTRWKFNVQELARRNIHGVPKEKIQRMKERYEHNVTFHSVLHAEKPSRANRNQGRNSEPSSGSGYWNTYTELPNRRANGLYSNEGYRRGGHHQGY | not soluble
14 | MNIDIKEAHRRMLYLLQSFDTVCKKHDIDYWLDYGTLLGAIRHQGFIPWDTDTDVGMLRSDYALFLEKGVPELPQDIFFQTPETEPAMAPWSWLVEARLRDRHSRYVPDKKTPAEPMQFGGLQLDLFIYDWDGKYENALSNSFERNLSESRIHLRLDEVEYLDTARFEGVEFPVPSGYDAYLTRCYGDYRTFPPEEERQIPEVVAWSVLEHHHHHH | soluble
15 | MAHHHHHHMSQLYRGRSYQNILRKLPRNLVVFDGHCLMCQARVRHVLERNFSYFSFIRIMQGVDPVKLEANKMLFCSFDSVEWREVRRNFPHLLNDADGVVLIEKVPSKTASFLSRVRQGQKQRRQQGRTGGMNSSEEKRGLKNFFQTNNFSFPLASSSVTTPRGLAGGFDGVEEDVDIVVSVKYEAVCRIGMKLDRWLLRTLFRCLYYMLPRWMGDRWYDYILRRRQLWGTSEEDAVRYPKRVPGLKERTWKL | not soluble
16 | MGSDKIHHHHHHMTAANTQHVEHINECTLESVIDLIRDADKPMVFKGLCHHWPLVQAGLESAQSAMTYLRQFYQGMPVTAYYVPPEQHGRVFYNEQLDGFNYQAGRLDFNQLLDRLSQEMIKDMPAGMYMGSTDIHQCLPGLGAQNSLDLAPMQPLTSIWLGNQTKVAAHYDFPLNLACNVVGKRTFTLFPPEQISNLYVGPMELAPGGQDISLVDMANPDFERFPRFQHALDASLTAELSPGDVLFIPSMWWHHVRGVDDFNVLITHWWRDTPGFLGRPNNALLHSILSLRSLPKAQRQAWKSIFEHYIFDHDDVDDSHIPDNVKGMQTKPLDELTARKIRADLINKLKR | not soluble
17 | KGLSADKKYFETRVNPTSVFWTGGKWKERLVQIMSQTQEQDILKFLKQTASPAMHELQRELSEEYGLSVRVDKMFHRDEPAIEFVIRKETMRDFMYGIKSVGQDVSDQLINDGKLPHIRHQTTYKPYAYFFDGRVGYDVQYMNKDELIADILKNYERYLMLLDDVGQELMAHEQVELAE | not soluble
18 | MQFIKNLQLNKKKDSDSSEQVLTNKKNKMKYEDFNFIRTLGTGSFGRVILATYKNGNYPPVAIKRFEKCKIIRQKQVDHVFSERKILNYINHPFCVNLHGSFKDDSYLYLVLEFVIGGEFFTFLRRNKRFPNDVGCFYAAQIVLIFEYLQSLNIVYRDLKPENLLLDKDGFIKMTDFGFAKIVETRTYTLCGTPEYIAPEILLNVGHGKAADWWTLGIFIYEILVGCPPFYANEPLLIYQKILEGIIYFPKFLDNNCKHLMKKLLSHDLTKRYGNLKKGAQNVKEHPWFSNIDWVNLLNKNVEVPYKPKYKNIFDSSNFERVQEDLTIADKITNENDPFYDW | not soluble
19 | MSMIETWTAVDQYVSDVLIPKDSTLEEVLQVNAAANLPAHDVSPTQGKFLQLLVQIQGARNILEIGTLGGYSTIWLARGLSSGGRVVTLEASEKHADIARSNIERANLNDRVEVRTGLALDSLQQIENEKYEPFDFIFIDADKQNNPAYFEWALKLSRPGTVIIGDNVVREGEVIDNTSNDPRVQGIRRFYELIAAEPRVSATALQTVGSKGYDGFIMAVVKE | soluble
20 | GGDFREYRDLMDTQVVLGFEGRPYHARDFYAAQILSIILGGGMSSRLFQEVREKRGLCYSIYAFHWGFSDIGLFGLHAATGQEKLKELLPVILDELSKVSKNIHTNELQRARAQYRATLTMAQENPSSQANFIARQILLYGREIPLSETIERLELITPARLTDLAGRLFINATPTLAAVGPVGSLMNFDNLTSTL | not soluble
21 | MGSDKIHHHHHHMNAETPQNLMVASLQAPPVRTVVADPQSVHAAIESRFCCREFLADPVERETMERILRVASWAPSGSNNQPWKVYVVQGASRAALSQKVRAAQDALSQDPTLADNYREPYQYYPVEWVSPYIERRRACGFGLYGVLNIARGDRVRMNEQLLRNFDFFGAPVGIFFTNDEILAEGALVDTAMFVQNVMLAARAEGLHTCVQAAWNRFSSVVLPHIGAQGERLVCALALGHADVDAPVNTFRPDRADPASFTAWLD | not soluble
22 | MGKKYEIFLNENEHSLITPKVSFKEILRYYYLYPKNAIPSFKLPFFKPDLSGFSTPHITWLGHSSLFISFKEYKILIDPIFNTHASPISFINKAFKNAPVYNINDFNEIFAVIITHSHFDHLDAKSVKALKDKAKFFITPLKVGNYLKSYGVSEKKIIELDWWSGIEFGDLKIMATPAQHSSSRGDGKNKTLWASFVMEFLSVDKRVFFSADGGYFTHFKKIGEYFGSFDLACLESGQFNIAWPYSHSFPEQILKEAKDLNAKAVMPIHWGRFLAGTHAWNEVVKFLYENLDLPLITPKMGEAYEVGAKLEHHHHHH | soluble
23 | MSLGQKGHKDSLYPCGGTPESSLHEALDQCMTALDLFLTNQFSEALSYLKPRTKESMYHSLTYATILEMQAMMTFDPQDILLAGNMMKEAQMLCQRHRRKSSVTDSFSSLVNRPTLGQFTEEEIHAEVCYAECLLQRAALTFLQDENMVSFIKGGIKVRNSYQTYKELDSLVQSSQYCKGENHPHFEGGVKLGVGAFNLTLSMLPTRILRLLEFVGFSGNKDYGLLQLEEGASGHSFRSVLCVMLLLCYHTFLTFVLGTGNVNIEEAEKLLKPYLNRYPKGAIFLFFAGRIEVIKGNIDAAIRRFEECCEAQQHWKQFHHMCYWELMWCFTYKGQWKMSYFYADLLSKENCWSKATYIYMKAAYLSMFGKEDHKPFGDDEVELFRAVPGLKLKIAGKSLPTEKFAIRKSRRYFSSNPISLPVPALEMMYIWNGYAVIGKQPKLTDGILEIITKAEEMLEKGPENEYSVDDECLVKLLKGLCLKYLGRVQEAEENFRSISANEKKIKYDHYLIPNALLELALLLMEQDRNEEAIKLLESAKQNYKNYSMESRTHFRIQAATLQAKSSLENSSRSMVSSVSEGHHHHHH | soluble
